According to US20190321456A1 (NATIONAL HEALTH RESEARCH INSTITUTES, published 2019):

T1: recombinant ovalbumin (OVA) (Gallus gallus (Chicken), UniProt P01012 1-386)
T1 sequence: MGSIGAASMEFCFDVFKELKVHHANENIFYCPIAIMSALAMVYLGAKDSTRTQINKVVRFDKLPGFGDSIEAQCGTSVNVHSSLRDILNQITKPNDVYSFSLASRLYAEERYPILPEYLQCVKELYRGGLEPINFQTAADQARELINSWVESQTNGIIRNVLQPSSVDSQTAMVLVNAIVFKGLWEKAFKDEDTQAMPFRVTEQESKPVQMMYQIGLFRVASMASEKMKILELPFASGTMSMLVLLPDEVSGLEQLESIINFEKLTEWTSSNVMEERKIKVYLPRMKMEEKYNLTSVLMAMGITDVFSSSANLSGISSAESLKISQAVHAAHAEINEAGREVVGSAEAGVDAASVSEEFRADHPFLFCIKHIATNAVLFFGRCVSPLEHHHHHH

B1: OVA-FLIPr fusion protein (other)
chain: MGSIGAASMEFCFDVFKELKVHHANENIFYCPIAIMSALAMVYLGAKDSTRTQINKVVRFDKLPGFGDSIEAQCGTSVNVHSSLRDILNQITKPNDVYSFSLASRLYAEERYPILPEYLQCVKELYRGGLEPINFQTAADQARELINSWVESQTNGIIRNVLQPSSVDSQTAMVLVNAIVFKGLWEKAFKDEDTQAMPFRVTEQESKPVQMMYQIGLFRVASMASEKMKILELPFASGTMSMLVLLPDEVSGLEQLESIINFEKLTEWTSSNVMEERKIKVYLPRMKMEEKYNLTSVLMAMGITDVFSSSANLSGISSAESLKISQAVHAAHAEINEAGREVVGSAEAGVDAASVSEEFRADHPFLFCIKHIATNAVLFFGRCVSPGGGGSGGGGSGGGGSFFSYEWKGLEIAKNLADQAKKDDERIDKLMKESDKNLTPYKAETVNDLYLIVKKLSQGDVKKAVVRIKDGGPRDYYTFDLTRPLEENRKNIKVVKNGEIDSIYWDLEHHHHHH
notes: Expressed in E. coli from pET-22b(+) and purified by IMAC; also called recombinant OVA-FLIPr fusion protein
B2: biotin-conjugated recombinant FcγRIIa-H131 (receptor)
chain: AAPPKAVLKLEPPWINVLQEDSVTLTCQGARSPESDSIQWFHNGNLIPTHTQPSYRFKANNNDSGEYTCQTGQTSLSDPVHLTVLSEWLVLQTPHLEFQEGETIMLRCHSWKDKPLVKVTFFQNGKSQKFSHLDPTFSIPQANHSHSGDYHCTGNIGYTLFSSKPVTITVQVPSMGSSSPMGI
modifications: biotin-conjugated
notes: The H131 allotype name implies the human receptor
B3: biotin-conjugated recombinant FcγRI (receptor)
chain: QVDTTKAVITLQPPWVSVFQEETVTLHCEVLHLPGSSSTQWFLNGTATQTSTPSYRITSASVNDSGEYRCQRGLSGRSDPIQLEIHRGWLLLQVSSRVFTEGEPLALRCHAWKDKLVYNVLYYRNGKAFKFFHWNSNLTILKTNISHNGTYHCSGMGKHRYTSAGISVTVKELFPAPVLNASVTSPLLEGNLVTLSCETKLLLQRPGLQLYFSFYMGSKTLRGRNTSSEYQILTARREDSGLYWCEAATEDGNVLKRSPELELQVLGLQLPTP
modifications: biotin-conjugated
B4: OVA-FLIPr-like fusion protein (other)
chain: MGSIGAASMEFCFDVFKELKVHHANENIFYCPIAIMSALAMVYLGAKDSTRTQINKVVRFDKLPGFGDSIEAQCGTSVNVHSSLRDILNQITKPNDVYSFSLASRLYAEERYPILPEYLQCVKELYRGGLEPINFQTAADQARELINSWVESQTNGIIRNVLQPSSVDSQTAMVLVNAIVFKGLWEKAFKDEDTQAMPFRVTEQESKPVQMMYQIGLFRVASMASEKMKILELPFASGTMSMLVLLPDEVSGLEQLESIINFEKLTEWTSSNVMEERKIKVYLPRMKMEEKYNLTSVLMAMGITDVFSSSANLSGISSAESLKISQAVHAAHAEINEAGREVVGSAEAGVDAASVSEEFRADHPFLFCIKHIATNAVLFFGRCVSPGGGGSGGGGSGGGGSFFSYEWKGLEIAKNLADQAKKDDERADKLIKEADEKNEHYKGKTVEDLYVIAKKMGKGNTIAVVKIKDGGKNGYYTFDITRPLEEHRKNIPVVKNGEIDSITWYLEHHHHHH
notes: Expressed in E. coli from pET-22b(+) and purified by IMAC; also called recombinant OVA-FLIPr-like fusion protein
B5: biotin-conjugated recombinant FcγRIIb (receptor)
chain: APPKAVLKLEPQWINVLQEDSVTLTCRGTHSPESDSIQWFHNGNLIPTHTQPSYRFKANNNDSGEYTCQTGQTSLSDPVHLTVLSEWLVLQTPHLEFQEGETIVLRCHSWKDKPLVKVTFFQNGKSKKFSRSDPNFSIPQANHSHSGDYHCTGNIGYTLYSSKPVTITVQAP
modifications: biotin-conjugated

Columns and labels:
[1] = target: T2, biotin-conjugated recombinant FcγRIIIa-F158 (UniProt P08637 17-208, biotin-conjugated); assay: ELISA, coated fusion protein, biotin-conjugated FcγR in solution
T2 construct: The F158 allotype name implies the human receptor
T2 sequence (P08637 17-208 limits assumed): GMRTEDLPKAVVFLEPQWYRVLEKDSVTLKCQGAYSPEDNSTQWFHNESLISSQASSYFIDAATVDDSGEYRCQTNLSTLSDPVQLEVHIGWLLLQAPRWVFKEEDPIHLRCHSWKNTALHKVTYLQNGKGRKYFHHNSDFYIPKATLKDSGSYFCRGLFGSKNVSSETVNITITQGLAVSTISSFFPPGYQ

[2] = target: T3, biotin-conjugated recombinant FcγRIIIa-V158 (UniProt P08637 17-208); assay: as above
T3 construct: The V158 allotype name implies the human receptor
T3 sequence (P08637 17-208 F176V limits assumed): as the sequence (P08637 17-208 limits assumed) above, with F160V counted along it

[3] = target: B2; assay: as above
[4] = target: T1, recombinant ovalbumin (OVA); assay: ELISA, plate coated with recombinant protein at 1 µg/mL, serial dilution of biotin-conjugated FcγR, streptavidin-HRP

| Binder | binding result [1] | binding result [2] | binding result [3] | binding result [4] |
| --- | --- | --- | --- | --- |
| B1 | binds | binds | binds |  |
| B2 |  |  |  | no binding |
| B3 |  |  |  | no binding |
| B4 | binds | binds | binds |  |
| B5 |  |  |  | no binding |
